Patent EP1230261B1 (LUDWIG INSTITUTE FOR CANCER RESEARCH, dated 2008)

Tests used:
[1] = target: T1, HLA-A*0201 molecules on T2 cells (CEMX721.174.T2) (human); assay: cell-based or functional assay
[2] = target: T1, HLA-A*0201 molecules on T2 cells …; assay: cell-based or functional assay; remark: listed apart in the source
[3] = target: T1, HLA-A*0201 molecules on T2 cells …; assay: functional competition assay

| Binder | Relative competitor activity (inhibition of CTL lysis of T2 cells given SEQ ID NO:4) [1] | Competitor activity [mM] 50% [2] [mM] | Relative competitor activity to SEQ ID NO:2 [2] | fold reduction in peptide binding (against the base peptide SEQ ID NO:6) [3] [fold] |
| --- | --- | --- | --- | --- |
| QLSLLMWIT [NY-ESO-1 155-163 peptide QLSLLMWIT (SEQ ID NO:3)] | 0.01 relative to FluMA 58-66 (SEQ ID NO:5) | 0.03 | 9 relative to SEQ ID NO:2 | – |
| SLLMWITQCFL [NY-ESO-1 157-167 peptide SLLMWITQCFL (SEQ ID NO:1)] | 0.04 relative to FluMA 58-66 (SEQ ID NO:5) | 0.02 | 13 relative to SEQ ID NO:2 | – |
| SLLMWITQL [NY-ESO-1 157-C165L peptide SLLMWITQL (SEQ ID NO:7)] | 0.5 relative to FluMA 58-66 (SEQ ID NO:5) | 0.002 | 130 relative to SEQ ID NO:2 | – |
| SALMWITQA [peptide SALMWITQA (SEQ ID NO:21)] | – | 0.01 | 27 relative to SEQ ID NO:2 | 100 |
| SLLMWITQS [peptide SLLMWITQS (SEQ ID NO:19)] | – | 0.02 | 13 relative to SEQ ID NO:2 | – |
| SLLMWITQV [NY-ESO-1 157-C165V peptide SLLMWITQV (SEQ ID NO:8)] | – | 6e-05 | – | – |
| SLLMAITQA [peptide SLLMAITQA (SEQ ID NO:24)] | – | 0.004 | 68 relative to SEQ ID NO:2 | – |
| SLLAWITQA [peptide SLLAWITQA (SEQ ID NO:23)] | – | < 0.0001 | > 2700 relative to SEQ ID NO:2 | – |
| SLLMWATQA [peptide SLLMWATQA (SEQ ID NO:25)] | – | 0.01 | 27 relative to SEQ ID NO:2 | – |
| ALLMWITQA [peptide ALLMWITQA (SEQ ID NO:20)] | – | 0.0013 | 208 relative to SEQ ID NO:2 | – |
| SLAMWITQA [peptide SLAMWITQA (SEQ ID NO:22)] | – | 0.001 | 270 relative to SEQ ID NO:2 | – |
| SLLMWIAQA [peptide SLLMWIAQA (SEQ ID NO:26)] | – | 0.0002 | 1350 relative to SEQ ID NO:2 | – |
| SLLMWITAA [peptide SLLMWITAA (SEQ ID NO:27)] | – | 0.00018 | 1500 relative to SEQ ID NO:2 | – |
